# Test results: IntAct's records for PubMed 17589525
# B1: Splicing factor 45 (Homo sapiens), Q96I25 (parent)
# chain: MSLYDDLGVETSDSKTEGWSKNFKLLQSQLQVKKAALTQAKSQRTKQSTVLAPVIDLKRGGSSDDRQIVDTPPHVAAGLKDPVPSGFSAGEVLIPLADEYDPMFPNDYEKVVKRQREERQRQRELERQKEIEEREKRRKDRHEASGFARRPDPDSDEDEDYERERRKRSMGGAAIAPPTSLVEKDKELPRDFPYEEDSRPRSQSSKAAIPPPVYEEQDRPRSPTGPSNSFLANMGGTVAHKIMQKYGFREGQGLGKHEQGLSTALSVEKTSKRGGKIIVGDATEKDASKKSDSNPLTEILKCPTKVVLLRNMVGAGEVDEDLEVETKEECEKYGKVGKCVIFEIPGAPDDEAVRIFLEFERVESAIKAVVDLNGRYFGGRVVKACFYNLDKFRVLDLAEQV
# partner: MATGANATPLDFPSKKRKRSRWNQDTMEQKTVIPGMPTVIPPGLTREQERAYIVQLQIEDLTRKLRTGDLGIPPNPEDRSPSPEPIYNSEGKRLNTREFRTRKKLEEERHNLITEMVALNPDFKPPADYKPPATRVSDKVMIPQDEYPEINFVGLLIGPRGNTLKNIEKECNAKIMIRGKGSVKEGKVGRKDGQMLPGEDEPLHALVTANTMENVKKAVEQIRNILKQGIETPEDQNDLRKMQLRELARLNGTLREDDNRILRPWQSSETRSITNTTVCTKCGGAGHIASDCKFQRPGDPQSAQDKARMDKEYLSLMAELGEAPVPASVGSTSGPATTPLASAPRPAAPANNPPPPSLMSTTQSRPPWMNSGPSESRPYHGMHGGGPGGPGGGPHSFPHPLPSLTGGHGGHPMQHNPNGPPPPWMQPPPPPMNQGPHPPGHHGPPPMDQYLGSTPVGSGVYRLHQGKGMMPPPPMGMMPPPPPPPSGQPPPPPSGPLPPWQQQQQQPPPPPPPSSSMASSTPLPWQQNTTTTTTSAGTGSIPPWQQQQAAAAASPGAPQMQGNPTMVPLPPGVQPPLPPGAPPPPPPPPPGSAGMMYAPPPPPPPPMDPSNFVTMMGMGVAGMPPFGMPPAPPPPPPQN
# Variants of: B1
# Details: with sf01_human SF1, Q15637
row,Variant,effect of a mutation on the interaction
1,MSLYDDLGVETSDSKTEGWSKNFKLLQSQLQVKKAALTQAKSQRTKQSTVLAPVIDLKRGGSSDDRQIVDTPPHVAAGLKDPVPSGFSAGEVLIPLADEYDPMFPNDYEKVVKRQREERQRQRELERQKEIEEREKRRKDRHEASGFARRPDPDSDEDEDYERERRKRSMGGAAIAPPTSLVEKDKELPRDFPYEEDSRPRSQSSKAAIPPPVYEEQDRPRSPTGPSNSFLANMGGTVAHKIMQKYGFREGQGLGKHEQGLSTALSVEKTSKRGGKIIVGDATEKDASKKSDSNPLTEILKCPTKVVLLRNMVGAGEVDEDLEVETKEECEKYGKVGKCVIFEIPGAPDDEAVRIFLEFERVESAIKAVVDLNGAYFGGRVVKACFYNLDKFRVLDLAEQV [R375A],decreasing interaction
2,MSLYDDLGVETSDSKTEGWSKNFKLLQSQLQVKKAALTQAKSQRTKQSTVLAPVIDLKRGGSSDDRQIVDTPPHVAAGLKDPVPSGFSAGEVLIPLADEYDPMFPNDYEKVVKRQREERQRQRELERQKEIEEREKRRKDRHEASGFARRPDPDSDEDEDYERERRKRSMGGAAIAPPTSLVEKDKELPRDFPYEEDSRPRSQSSKAAIPPPVYEEQDRPRSPTGPSNSFLANMGGTVAHKIMQKYGFREGQGLGKHEQGLSTALSVEKTSKRGGKIIVGDATEKDASKKSDSNPLTEILKCPTKVVLLRNMVGAGEVDEDLEVETKEECEKYGKVGKCVIFEIPGAPDDEAVRIFLEFERVESAIKAVVDLNGDYFGGRVVKACFYNLDKFRVLDLAEQV [R375D],disrupting interaction
3,MSLYDDLGVETSDSKTEGWSKNFKLLQSQLQVKKAALTQAKSQRTKQSTVLAPVIDLKRGGSSDDRQIVDTPPHVAAGLKDPVPSGFSAGEVLIPLADEYDPMFPNDYEKVVKRQREERQRQRELERQKEIEEREKRRKDRHEASGFARRPDPDSDEDEDYERERRKRSMGGAAIAPPTSLVEKDKELPRDFPYEEDSRPRSQSSKAAIPPPVYEEQDRPRSPTGPSNSFLANMGGTVAHKIMQKYGFREGQGLGKHEQGLSTALSVEKTSKRGGKIIVGDATEKDASKKSDSNPLTEILKCPTKVVLLRNMVGAGEVDEDLEVETKEECEKYGKVGKCVIFEIPGAPDDEAVRIFLEFERVESAIKAVVDLNGRYAGGRVVKACFYNLDKFRVLDLAEQV [F377A],decreasing interaction
4,MSLYDDLGVETSDSKTEGWSKNFKLLQSQLQVKKAALTQAKSQRTKQSTVLAPVIDLKRGGSSDDRQIVDTPPHVAAGLKDPVPSGFSAGEVLIPLADEYDPMFPNDYEKVVKRQREERQRQRELERQKEIEEREKRRKDRHEASGFARRPDPDSDEDEDYERERRKRSMGGAAIAPPTSLVEKDKELPRDFPYEEDSRPRSQSSKAAIPPPVYEEQDRPRSPTGPSNSFLANMGGTVAHKIMQKYGFREGQGLGKHEQGLSTALSVEKTSKRGGKIIVGDATEKDASKKSDSNPLTEILKCPTKVVLLRNMVGAGEVDEDLEVETKEECEKYGKVGKCVIFEIPGAPDDEAVRIFLEFERVESAIKAVVDLNGRYYGGRVVKACFYNLDKFRVLDLAEQV [F377Y],decreasing interaction
5,MSLYDDLGVETSDSKTEGWSKNFKLLQSQLQVKKAALTQAKSQRTKQSTVLAPVIDLKRGGSSDDRQIVDTPPHVAAGLKDPVPSGFSAGEVLIPLADEYDPMFPNDYEKVVKRQREERQRQRELERQKEIEEREKRRKDRHEASGFARRPDPDSDEDEDYERERRKRSMGGAAIAPPTSLVEKDKELPRDFPYEEDSRPRSQSSKAAIPPPVYEEQDRPRSPTGPSNSFLANMGGTVAHKIMQKYGFREGQGLGKHEQGLSTALSVEKTSKRGGKIIVGDATEKDASKKSDSNPLTEILKCPTKVVLLRNMVGAGEVDEDLEVETKEECEKYGKVGKCVIFEIPGAPDDEAVRIFLEFERVESAIKAVVDLNGRAFGGRVVKACFYNLDKFRVLDLAEQV [Y376A],decreasing interaction
